The results in this text go back to the Immune Epitope Database (IEDB).

The target of experiment [1] is HLA-A*02:03. Kind of experiment: IEDB peptide-MHC binding, purified MHC/competitive/radioactivity; filed as Kd, often an IC50 or EC50 that approximates it; ≥ and ≤ were set here for values at or beyond the usual limits of such assays. The note with it: source organism: Vaccinia virus Copenhagen.
Experiment [2] concerns the target HLA-B*07:02. The description is as above.
Experiment [3] deals with HLA-A*33:01. The description is as above. The note with it: source organism: Vaccinia virus Copenhagen.
In experiment [4] the target is HLA-A*68:01. Described as above. The note with it: source organism: Vaccinia virus Copenhagen.
Experiment [5] concerns the target HLA-B*54:01. Described as above.
The target of experiment [6] is HLA-A*03:01. The experiment is described as above. Conditions: source organism: Vaccinia virus Copenhagen.
Experiment [7] concerns the target HLA-B*35:01. The experiment is described as above.
Experiment [8] addresses HLA-B*53:01. The description is as above.
The target of experiment [9] is HLA-B*51:01. The description is as above.
Experiment [10] addresses HLA-A*11:01. The experiment is described as above. Conditions: source organism: Vaccinia virus Copenhagen.
The target of experiment [11] is HLA-A*02:06. The experiment is described as above. The note with it: source organism: Vaccinia virus Copenhagen.
Experiment [12] concerns the target HLA-A*02:02. The description is as above. The note with it: source organism: Vaccinia virus Copenhagen.
In experiment [13] the target is HLA-A*31:01. The description is as above. The note with it: source organism: Vaccinia virus Copenhagen.
Experiment [14] deals with HLA-A*02:01. As to the kind of experiment: IEDB peptide-MHC binding, purified MHC/competitive/fluorescence; filed as Kd, often an IC50 or EC50 that approximates it; ≥ and ≤ were set here for values at or beyond the usual limits of such assays. The note with it: source organism: Vaccinia virus L-IPV.
The target of experiment [15] is HLA-B*15:03. As to the kind of experiment: IEDB peptide-MHC binding, purified MHC/competitive/radioactivity; filed as Kd, often an IC50 or EC50 that approximates it; ≥ and ≤ were set here for values at or beyond the usual limits of such assays. Conditions: source organism: Vaccinia virus WR.
Experiment [16] deals with HLA-A*30:01. Described as above. Conditions: source organism: Vaccinia virus WR.
Experiment [17] has as its target HLA-B*08:01. The experiment is described as above. The note with it: source organism: Vaccinia virus WR.
Experiment [18] has as its target HLA-A*32:01. Described as above. Conditions: source organism: Vaccinia virus WR.
The target in experiment [19] is HLA-A*03:01. As to the kind of experiment: IEDB peptide-MHC binding, purified MHC/direct/fluorescence; filed as Kd, often an IC50 or EC50 that approximates it; ≥ and ≤ were set here for values at or beyond the usual limits of such assays.
In experiment [20] the target is HLA-A*11:01. The description is as above.
Experiment [21] deals with HLA-A*31:01. As to the kind of experiment: IEDB peptide-MHC binding, purified MHC/competitive/fluorescence; filed as Kd, often an IC50 or EC50 that approximates it; ≥ and ≤ were set here for values at or beyond the usual limits of such assays.
The target of experiment [22] is HLA-A*02:01. As to the kind of experiment: IEDB peptide-MHC binding, purified MHC/competitive/radioactivity; filed as Kd, often an IC50 or EC50 that approximates it; ≥ and ≤ were set here for values at or beyond the usual limits of such assays. Conditions: source organism: Lassa virus Josiah.
Where [23] appears, read: source organism: Vaccinia virus Copenhagen.
Where [24] appears, read: source organism: Vaccinia virus WR.
[25] abbreviates: source organism: Triticum aestivum.
Where [26] appears, read: source organism: Mammarenavirus juninense.
[27] abbreviates: source organism: SARS coronavirus Tor2.
The mark [28] stands for this setting: source organism: Orthohantavirus dobravaense.

NLFDIPLLTV: the Kd (as a rule, the free concentration of one partner at which half of the binding sites on the other are occupied at equilibrium, for simple one-to-one binding) in experiment [1] is 0.000253 µM; in experiment [2] (setting [23]), 17.1 µM; in [3], 11.8 µM; in [4], no less than 21.9 µM; in experiment [5] (setting [23]) it was 18.8 µM; in experiment [6] it was no less than 48 µM. Further, the Kd in [7] (setting [23]) was no less than 69.9 µM; in experiment [8] (setting [23]), no less than 69.9 µM; in experiment [9] (setting [23]), no less than 69.6 µM; in experiment [10] it was no less than 69.8 µM; in experiment [11] it was 0.00155 µM; in [12], 99.7 pM. The figures for the Kd in [13] and in experiment [14] were no less than 22.3 µM and no more than 0.0001 µM, respectively.

In the case of NMGVAMNLF, the Kd in experiment [15] came out at 0.998 µM.

Take PPCQCTVQEF: the Kd in experiment [2] (setting [24]) was no less than 45.3 µM; in experiment [5] (setting [24]), no less than 69.9 µM; in [7] (setting [24]), no less than 23.4 µM; in experiment [8] (setting [24]), 5.15 µM; in [9] (setting [24]) it was no less than 69.6 µM.

For the sequence QPEKEIPEY, the Kd is no less than 36.9 µM in [2] (setting [24]); no less than 43.7 µM in [5] (setting [24]); 0.0156 µM in [7] (setting [24]); 0.0452 µM in [8] (setting [24]); no less than 37.7 µM in experiment [9] (setting [24]).

On to QPFRPQQPY, for which the Kd in [2] (setting [25]) was no less than 77.5 µM; in [5] (setting [25]), no less than 78.1 µM; in experiment [7] (setting [25]) it was 0.296 µM; in experiment [8] (setting [25]), no less than 35.2 µM; in experiment [9] (setting [25]) it was no less than 77.5 µM.

RKNHIYNSF: the Kd in [15] worked out at 0.000132 µM.

Turning to RQFEKDRSF, the Kd in experiment [15] worked out at 0.000143 µM.

For RSKDTHVFA, the dissociation constant Kd in [16] came to 18.7 pM; in experiment [15], 0.182 µM.

Turning to SQRFIFNII, the Kd is 0.653 µM in [17], 1.87 µM in experiment [18] and 0.299 µM in experiment [15].

TPDNFSSLI: the Kd in experiment [2] (setting [26]) is 11.3 µM; in experiment [5] (setting [26]) it was no less than 78.1 µM; in experiment [7] (setting [26]), 15.3 µM; in [8] (setting [26]), 0.372 µM; in experiment [9] (setting [26]), 1.71 µM.

Regarding TPKYKFVRI, the Kd in experiment [2] (setting [27]) was no less than 10 µM; in experiment [5] (setting [27]) it was no less than 46.2 µM; in experiment [7] (setting [27]), no less than 77.4 µM; in experiment [8] (setting [27]) it was 16 µM; in experiment [9] (setting [27]), 16.1 µM.

With TPLISFFGLF, the Kd is 1.14 µM in [2] (setting [24]); 3.96 µM in experiment [5] (setting [24]); 0.416 µM in [7] (setting [24]); 0.0311 µM in [8] (setting [24]); 4.97 µM in experiment [9] (setting [24]).

Consider VLFMVAWGK, for which the Kd amounted to 2.26 µM in experiment [19] (source organism: Amur virus), 0.076 µM in experiment [20] (source organism: Amur virus) and 0.161 µM in experiment [21] (source organism: Hantaan virus 76-118).

Consider VLKGLYNFA, for which the Kd in [22] is 6.25 µM.

As to VPEFAKQYV, the Kd was 0.128 µM in experiment [2] (setting [24]); 1.6 µM in [5] (setting [24]); no less than 32.6 µM in experiment [7] (setting [24]); 5.15 µM in experiment [8] (setting [24]); 0.718 µM in experiment [9] (setting [24]).

For VQSFKINIF, the Kd in [15] amounted to 0.0513 µM.

With VTYDYIIPK, the values for the Kd in [19] (setting [28]), in experiment [20] (setting [28]) and in [21] (source organism: Kurkino virus) were 0.0508 µM, 0.0012 µM and 0.0424 µM, respectively.

Consider VVYIILAPK, for which the figures for the Kd in experiment [20] (source organism: Mycobacterium tuberculosis) and in experiment [21] (source organism: Mycobacterium leprae) were 0.0274 µM and 0.299 µM, respectively.

Take YQHFVARVF: the Kd in [15] was 0.000399 µM.
